Assay results published in the DeepSol protein solubility set.

Test: soluble on expression in E. coli; label from the status in PepcDB or PDB records

Sequence	soluble on expression in E. coli
MDTSSVGGLELTDQTPVLLGSTAMATSLTNVGNSFSGPANPLVSRSNKFQNSSVEDDDDVVFIEPVQPPPPSVPVVADQRTITFTSSKNEELQGNDSKITPSSKELASQKGSVSETIVIDDEEDMETNQGQEKNSSNFIERRPPETKNRTNDVDFSTSSFSRSKTKTGVGPFNPGRMNVAGDVFQNGESATHHNPDSWISQSASFPRNQKQPGVDSLSPVASLPKQIFQPSVQQQPTKPVKVTCANCKKPLQKGQTAYQRKGSAHLFCSTTCLSSFSHKPAPKKLCVMCKKDITTMKGTIVAQVDSSESFQEFCSTSCLSLYEDKQNPTKGALNKSRCTICGKLTEIRHEVSFKNMTHKLCSDHCFNRYRMANGLIMNCCEQCGEYLPSKGAGNNVLVIDGQQKRFCCQSCVSEYKQVGSHPSFLKEVRDHMQDSFLMQPEKYGKLTTCTGCRTQCRFFDMTQCIGPNGYMEPYCSTACMNSHKTKYAKSQSLGIICHFCKRNSLPQYQATMPDGKLYNFCNSSCVAKFQALSMQSSPNGQFVAPSDIQLKCNYCKNSFCSKPEILEWENKVHQFCSKTCSDDYKKLHCIVTYCEYCQEEKTLHETVNFSGVKRPFCSEGCKLLYKQDFARRLGLRCVTCNYCSQLCKKGATKELDGVVRDFCSEDCCKKFQDWYYKAARCDCCKSQGTLKERVQWRGEMKHFCDQHCLLRFYCQQNEPNMTTQKGPENLHYDQGCQTSRTKMTGSAPPPSPTPNKEMKNKAVLCKPLTMTKATYCKPHMQTKSCQTDDTWRTEYVPVPIPVPVYIPVPMHMYSQNIPVPTTVPVPVPVPVFLPAPLDSSEKIPAAIEELKSKVSSDALDTELLTMTDMMSEDEGKTETTNINSVIIETDIIGSDLLKNSDPETQSSMPDVPYEPDLDIEIDFPRAAEELDMENEFLLPPVFGEEYEEQPRPRSKKKGAKRKAVSGYQSHDDSSDNSECSFPFKYTYGVNAWKHWVKTRQLDEDLLVLDELKSSKSVKLKEDLLSHTTAELNYGLAHFVNEIRRPNGENYAPDSIYYLCLGIQEYLCGSNRKDNIFIDPGYQTFEQELNKILRSWQPSILPDGSIFSRVEEDYLWRIKQLGSHSPVALLNTLFYFNTKYFGLKTVEQHLRLSFGTVFRHWKKNPLTMENKACLRYQVSSLCGTDNEDKITTGKRKHEDDEPVFEQIENTANPSRCPVKMFECYLSKSPQNLNQRMDVFYLQPECSSSTDSPVWYTSTSLDRNTLENMLVRVLLVKDIYDKDNYELDEDTD	soluble
MQIGAKIRQLRIANQMTQEELADRAELSKGFISQIENDLTSPSINTLVDILQCLGTDLKTFFSDSEDKQIVFREKDYFSKTDNELKNTIEWVVPNSQKNAMEPIRMTLQPGGRSLEDHPHEGEEFGYVVKGSIEVHIGNECYRVNEGESFYFESTRKHYIVNVGESDAQVIWVSTPPTF	not soluble
MGSDKIHHHHHHMFLLPSTITRNVIFISHATPEDNDFTIWLASRLQAEGFEVWIDKQALVGGEKFWQEIDQVIRHKAVKFLLVYSENICYQKQRGILKNGVAKEISMAEGIATTNGLKDFMILLNVDGSEYNLFIGADTLNQVPFYENWAGGYSQLRKKFKKEGLEPTGSPVGDFSKWYEDEYVIHHGIENLHEIYYDCWWPIPELPESFFVYIFPNNVVASQVHQRSKYPTGKASNILASFYDTSEFEVEIDGQLERIPFTAKHEIKVSDVIARTVRLGFPGTRDVENYFRSLLQRTFHLIMKERHLHWYEMANMKQAYFFSAKSHPKIKFEYPHRATKAGKSKVIFGKHLSSFWHYALSAKPIITPQLAFGLKSHIVFTTDGVKLWDDKAKMHTARRRKGRLMFNEEWRDLLFAFLHALCQGGTTVNIMLNPTFELALKPWTNTYHSDFGYIEPKGQDRHDILAAEYEYQDREDIDPDEVANV	not soluble
MSLTKTVLILTAAIDLDGGDWFSPCWERVTRSMALGKAGDIIHGCVPGAALAIREEKPIAAGRSAQNRRGSFREQEDGSYVLLAGRIFNRTDLLRRFDLKQGMDDADLYAAVSARMGEAAYRAIVGDYAALQWFPQRRSLRLARSGTSNMPLHVWRDGSRIVISSLPGPILASGVPARINDDRVADELLLFSPDGRTSFYAGMHRVPGGGEEVHDPSGFKARRLWSVKDAPEIRLRRDEDYVEALDVLFDEAVSATMDGSSAPGILLSGGFDSQTVASYAVKRLPAGRRLQAFTSVPMQGWTPPPRPGIFGDESAHVRALCAMYPQIEPHFIEAADFRYGERGHRQFLVGGWPVFNEMNAHWSHASLEQAADLGCDLMLTGDLGNSGFSYDGLTGYPTWLREGQWFRLLREIGKSDDPRPFWRKLISLAVMPHVPVRWKRKMDRHRPWRPSAFATWCGMREDFARESGVLDRAEAGGHDIDFYDIPSARTWRANVVDSLNDGAPEIYLGYQLLYGVPMRDPTAYLPLLEFCAGIPDEQYLRDGQTRWLARRLMQGRVPEMVRLENRIGAQSSDWPQRFARDREDLIAEMERMKADERLAKIFDFERLAANLREWDGSDRPESRSNFKINAAVGRAMVSARFVSHVEGRNVGEGHHHHHH	soluble
MSISWGAQYPKLKTNLRLGINRLQLLGKKKTEMAMKARTEIADYIAANKPDRARIRVEHIIREDYVVEAFEILEMYCDLLLARFGLIEQMKTLDDGIAEAVISIMWAAPRLATDIAEFKTISDQLTIKYGKPFAEAARANQLEFPARVNPKIISKLGAAAPPKLLVERYMIEIAAAAGVPFVPDPDVMREDEVHQAEQILIDFKNAGGNGPSGPDGPPPPPSNPYGGSGNDNGSSGGGGGYGWNLENQSAIGSGVMPHGTAIGGGVQPVSNFIPPPPNRHPNEPPQDDENIYDHIPDVSGGNIYEVPSRDHYDFPPDAFNEEPPKTNPTTGVINLPKIGPNGLPIYPGQQQPKGPGGAQAYPALSQRNSLVNPNLQPNHPTAPPQSLRKPDDFSDLSFPEPPSSFVGGNNKPGGPGGNNGGGAGNGGFDDFDDLARRFEELKKIK	not soluble
SLFKVGKVSYLNTLPLFYSLEGFEVVEGVPSELVEKLRRGEIHAGIVSSVEYFFNPQDYFILSGISISSRGSVCSVKLFSNEPMEKIREVNITKASLTSRELLFYLFEKKFGFVPKESEEAQAKLLIGDEAMEQKGYKFVYDLGEEWFKLHGLPFVFALFLVKRDADISKAKFLKKEIKKSVKNFFEEGIKNIKNKEYFKNCLDYSLGGEHIKSLINFYAYLSRKFKKQVPKLKFVL	soluble
MGSSHHHHHHSSGLVPRGSHMLELRLVQGSLLKKVLESIKDLVNDANFDCSSTGFSLQAMDSSHVALVSLLLRSEGFEHYRCDRNLSMGMNLGNMSKMLKCAGNDDIITIKADDGGDTVTFMFESPTQDKIADFEMKLMDIDSEHLGIPDAEYHSIVRMPSNEFSRICKDLSSIGDTVVISVTKEGVKFSTAGDIGTANIVLRQNTTVDKPEDAIVIEMKEPVSLSFALRYMNSFTKATPLSDTVTISLSSELPVVVEYKVAEMGYIRYYLAPKIE	soluble
MGSDKIHHHHHHMEERVVVEGLTGGYRPNKPVLHDLHLKIRANELVGLIGLNGAGKSTTIKHILGLMEPHKGSVMINGNTITTDRETYRRSLAYIPETPILYEELTLWEHMELTALAYGIERKAFEERSKLLLDEFRMTKMKHWYPSHFSKGMRQKVMIICAFLIDPPVYIVDEPIVGLDPIGIQSFLQLLATKKKNGAAVLMSTHILATAERYCDRFIILNRGRIVLEGTLESMRAELNMPDATLDDIYIEMTKEESQ	not soluble
GSHMVTIVRIYLDGVYGIGKSTTGRVMASAASGGSPTLYFPEPMAYWRTLFETDVISGIYDTQNRKQQGNLAVDDAALITAHYQSRFTTPYLILHDHTCTLFGGNSLQRGTQPDLTLVFDRHPVASTVCFPAARYLLGDMSMCALMAMVATLPREPQGGNIVVTTLNVEEHIRRLRTRARIGEQIDITLIATLRNVYFMLVNTCHFLRSGRVWRDGWGELPTSCGAYKHRATQMDAFQERVSPELGDTLFALFKTQELLDDRGVILEVHAWALDALMLKLRNLNVFSADLSGTPRQCAAVVESLLPLMSSTLSDFDSASALERAARTFNAEMGV	soluble
MKVCKFEKMKEEDEIRQVINYILKEHPYVVVVPTLTQLQEWLQDISISWFHEEDSASHTTINNIEEYCCTLADHLITDLPLNTDIKKYIRECIEKMHKLVEDKADLLIDKIIKAEIYRLSGELFACCLRQHGLNARTLDTGTFMQMNLERKPDIPYIQESIRQYINENRDTDIFIAPLSLCKNVYGEIDFMNEKRNDYYATVLASIFEADEIILSTELTNIYANRNCAREQHSLTYTEAEQLINSGVHLIYTDCITLAARSNIVIRLIDTHDLETERLYISSHDTESSVKAIIVQDSVTFVRFTSLNVLPGYLLMGKLLEVINKYQINVISMASSNVSVSMILTASRDTLRIIQRELHKYTEMVVDENMSVIHIIGSLHWERTQLESNIMETIRHIPISLISYGGSDHCFTISVHTADKKQLLNSLSQRFLERLSALEHHHHHH	not soluble
MAHHHHHHMKPSSISGEAPPLAVVGGNCSVFGFDRFGAERYWTVTGDQVTAMALMPWTSVSDSGSAPLSLLVASDDFEVRVYDGEEAIATVHEVDRVQKLVPLWQPSRNLDTETAAADSAGRYAYLLENGTVGMYERGERVWRVRGKSVPVSAAFCDVDGDGVAELVIGWSNGRVEVRTDRGGGLEKGGSVLFRDTYSSAVAAVLSEDYRQDGVPLPVICTVDGTVRGLTLLETRKDEAAEVRQLQVLEALVQEKQQLAAQLTSLEEQLARRAAGAQDTTMPESGVEVRCCCSANLATKHVEVHVEVTGPAAKRGDIVVHSCLLQCEIWATAAEQDTIAFANAEPSTTLVCSFAHADDLPLNVSASVAVGPAFGDSYRIHEVTVRVPRFVMYQLPYTIPPEQQRQRQGKTVTYQQPDGCVLLQWRELLRLDVIERWLRHSFCVPEDVALLDANAPTDPVLHLELIHVRDGSSFGIEVRNAAASGAAFNTITLWSDHLAPCGAVIDAFVEDLKGGWADGRADPVAVRCEMPLELERLRAIFARVDEFNEVRMKLTTDMADAATVVKTLLGRAEDARLLGDMASMKKSYAVLYDVDQELLCENAKRINNYEELKLALKEVNTCIQQAGMVRIGPARAQLIASCRNALKENQVNSLLEIIRTGSE	not soluble
MSSKNPVDEQPCCGSHEGSHQDPAPETLVVEKEVNNGEKKIRIAVVGCSHGEMDAIYETMTLIEQKNGYKFDLLICCGDYQAVRNYGDLPHMSIPPKYRSLQTFYKYYSGEQKAPVLTLFIGGNHEASGYLCELPNGGWVAPNIYYMGFANCIRFANLRIAGLSGIFSQGDFQFSHYERPSFSERDVKSAYHVRNVDMFRLRQLKSDNENKISNPIDIMLSHDWPGGIPDFGDKEWLFRKKDLFEADHNSGKLGNPSGMKLIYDCRPRYYLAAHLHIAFAALVPHKGSGSGRPQPTRFLSLDKPIPGRKFMQALELNVADDAKLELSYDPQWLAILRNTDLLTTGTKEQLILPDMASNRPCVYERKDFRPTAEELKEIEKLGDLTIRTDSFQQTAPPLKEITESSKNVPPSAYYRNPQSAEFCQWLGIRDLNQMLVEKTSEHVGTPYYMMTQDDANAKPNQDDVDFGDEDFVIDRGHTSDEPEAKKSRLDEDKFEAVPSE	soluble
MSLIMITAEMVPPDLLIKRLAIYLKENVKTVDPPEWALLAKTASFKERVPDNAEDWWYIRAASLLRKLYVNSIIGIEKTRTIYGGRKRRGTRPEKFVKAPGHVNRLIFQQLEKAGLVQKIKNKGRSLSPKGRSLLDKLALEIFKELAENNTSLKVYLELEHHHHHH	soluble
MGHHHHHHSHMSSPSRKRTIAESKKKHEEKQMKAQQLREKLREEKTLKLQKLLEREKDVRKWKEELLDQRRRMMEEKLLHAEFKREVQLQAIVKKAQEEEAKVNEIAFINTLEAQNKRHDVLSKLKEYEQRLNELQEERQRRQEEKQARDEAVQERKRALEAERQAR	soluble
MGSDKIHHHHHHVTQNSPRQLSLPVYLPDDETFQSYYPASGNDELIQKLQASAQGGLSSSLYIYGPVKSGRTHLMHAACALANDKDRRTLYIPLGIHASISPALFEGLESLELICIDDIDAIAGHPIWEEAIFHLYNRIAEHKDCHLIVSGKASPTEAGFLLPDLVSRMQWGLIYQLQPMADDEKLLALQRRAAMRGLQLSDEVGRFLLTRMARDLRTLFDVLDKLDKASMVHQRKLTIPFIKEMLRL	not soluble
